This passage reports EC50 results from patent publication US20250250330A1 (REVOPSIS THERAPEUTICS, published 2025).

Assay [1] has as its target T1, Recombinant human VEGF165 (Peprotech, Cat #100-20) (human, UniProt P15692-4 27-191).
T1 construct: Bought protein; also called rhVEGF165; rh VEGF165
Briefly: ELISA on rhVEGF165; biotinylated anti-VpreB antibody and streptavidin-HRP detection. For orientation: ELISA stands for enzyme-linked immunosorbent assay.

For assay [2], the target named is T2, His-tagged recombinant human ANG-2 (AcroBiosystems, Cat #AN2-H52H4) (human, UniProt O15123 275-496).
T2 construct: also called rhANG-2; rhANG-2-His; not shown: His tag
T2 sequence (looked up): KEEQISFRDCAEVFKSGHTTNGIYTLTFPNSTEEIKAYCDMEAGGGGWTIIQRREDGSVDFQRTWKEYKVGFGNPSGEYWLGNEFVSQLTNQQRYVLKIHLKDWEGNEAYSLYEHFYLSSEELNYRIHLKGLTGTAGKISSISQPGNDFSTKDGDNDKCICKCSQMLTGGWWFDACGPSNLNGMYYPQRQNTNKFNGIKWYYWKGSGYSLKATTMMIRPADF
Briefly: ELISA on rhANG-2; biotinylated anti-VpreB antibody and streptavidin-HRP detection. The method, then: SgG1 was diluted in blocking buffer at a starting concentration of 10 nM. Sab and scSv were diluted in blocking buffer at a starting concentration of 100 nM. They were then 1:3 serial diluted.

T1 sequence (P15692 other isoform, or with tags, fused parts or gaps limits assumed): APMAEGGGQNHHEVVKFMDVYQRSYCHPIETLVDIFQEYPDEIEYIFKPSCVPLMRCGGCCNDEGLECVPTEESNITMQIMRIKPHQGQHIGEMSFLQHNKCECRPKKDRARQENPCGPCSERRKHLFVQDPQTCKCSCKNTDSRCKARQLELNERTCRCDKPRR

B1: RP-014_VEGF-A_Sab (Fab, V domains shown)
VH: QVQLVQSGAEVKKPGASVKVSCKASGYTFSIYTIHWVRQAPGQGLEWMGGINPYNGNTKYAQKFQGRVTMTRDTSISTAYMELSRLRSDDTAVYYCAKAPAVFWWTGLDYWGQGTLVTVSS
VL: QPVLHQPPAMSSALGTTIRLTCTLRNDHDIGVYSVYWYQQRPGHPPRFLLRYFSQSDKSQGPQVPPRFSGSKDVARNRGYLSISELQPEDEAMYYCAMGARSSVTHVFGSGTQLTVLS
notes: also called anti-VEGF-A Sab; not shown: CH1 domain
B1: the EC50 (in general, the midpoint of the concentration-response curve) in assay [1] is 0.0063 nM.

B2: RP-017_ANG-2_Sab (Fab, V domains shown)
VH: EVQLVESGGGLVKPGGSLRLSCAASGFTFSSYGMHWVRQAPGKGLEWVAGISADSGDKNYADSVKGRFTISRDNAKNSLYLQMNSLRAEDTAVYYCAKEFISWIYTFDYLDYWGQGTLVTVSS
VL: QPVLHQPPAMSSALGTTIRLTCTLRNDHDIGVYSVYWYQQRPGHPPRFLLRYFSQSDKSQGPQVPPRFSGSKDVARNRGYLSISELQPEDEAMYYCAMGARSSVTHVFGSGTQLTVLS
notes: also called anti-ANG-2 Sab; not shown: CH1 domain
Consider B2, for which the EC50 in assay [2] was found to be 0.0485 nM.
